9 variants from article PMC7232412 can be followed below.

First the molecules themselves.
B1: unnamed (parent)
chain 1: MAVSESQLKKMVSKYKYRDLTVRETVNVITLYKDLKPVLDSYVFNDGSSRELMNLTGTIPVPYRGNTYNIPICLWLLDTYPYNPPICFVKPTSSMTIKTGKHVDANGKIYLPYLHEWKHPQSDLLGLIQVMIVVFGDEPPVFSRPISASYPPYQATGPPNTSYMPGMPGGISPYPSGYPPNPSGYPGCPYPPGGPYPATTSSQYPSQPPVTTVGPSRDGTISEDTIRASLISAVSDKLRWRMKEEMDRAQAELNALKRTEEDLKKGHQKLEEMVTRLDQEVAEVDKNIELLKKKDEELSSALEKMENQSENNDIDEVIIPTAPLYKQILNLYAEENAIEDTIFYLGEALRRGVIDLDVFLKHVRLLSRKQFQLRALMQKARKTAGLSDLY
chain 2: LQSRPEPTAPPEESFRSGVETTTPPQKQEPIDKELYPLTSLRSLFGNDPSSQ

The variants in this experiment derive from B1. The experiment can be described thus: yeast 2-hybrid assay. The note with it: with partner chain of the complex shown; parent: 1; read off a plot.
Consider chain 1 Y42A, for which the ratio to parent stood at 0.95.

For the variant chain 1 Q7A L8A, the ratio to parent was 1.1.

For the variant chain 1 K16A, the ratio to parent stood at 2.4.

chain 1 Y82A: the ratio to parent was found to be 0.8.

As to chain 1 K10A, the ratio to parent was found to be 2.9.

In the case of chain 1 M11A V12A S13A K14A, the ratio to parent turned out to be 1.9.

For chain 1 K9A K10A, the ratio to parent was 9.3.

Take chain 1 Y110A: the ratio to parent came out at 0.35.

Consider chain 1 S41A, for which the ratio to parent came out at 1.3.
